{"source": "paper PMC9496473", "about": "“Generation and Validation of an Anti-Human PANK3 Mouse Monoclonal Antibody” (Biomolecules, 2022)", "biological_target": "the molecule itself", "test": "SEC; Ni-NTA eluate of His-PANK3 further subjected to size-exclusion gel chromatography; all purification steps at 4 °C", "data": [{"protein": "His-tagged recombinant human PANK3 protein (residues Pro12 to Asn368) (enzyme, UniProt Q9H999 12-368, looked up, Pantothenate kinase 3 (PANK3), human, residues Pro12 to Asn368, from a pET28a plasmid bought from Addgene (25518); also called His-PANK3; recombinant PANK3; source: E. coli BL21 (DE3) and E. coli Rosetta2 (DE3), purified (Ni-NTA, size-exclusion chromatography); not shown: His6, N-terminal, kept) PWFGMDIGGTLVKLSYFEPIDITAEEEQEEVESLKSIRKYLTSNVAYGSTGIRDVHLELKDLTLFGRRGNLHFIRFPTQDLPTFIQMGRDKNFSTLQTVLCATGGGAYKFEKDFRTIGNLHLHKLDELDCLVKGLLYIDSVSFNGQAECYYFANASEPERCQKMPFNLDDPYPLLVVNIGSGVSILAVHSKDNYKRVTGTSLGGGTFLGLCSLLTGCESFEEALEMASKGDSTQADKLVRDIYGGDYERFGLPGWAVASSFGNMIYKEKRESVSKEDLARATLVTITNNIGSVARMCAVNEKINRVVFVGNFLRVNTLSMKLLAYALDYWSKGQLKALFLEHEGYFGAVGALLGLPN", "values": [{"measurement": "stoichiometry N", "value": 2}]}]}
